Data as given in patent US20250382381A1 (CORNELL UNIVERSITY, published 2025).

Experiments:
[1] = target: T1, human ART1 expressed on HEK293 cells (human, UniProt P52961 23-295); assay: cell-based or functional assay
T1 sequence: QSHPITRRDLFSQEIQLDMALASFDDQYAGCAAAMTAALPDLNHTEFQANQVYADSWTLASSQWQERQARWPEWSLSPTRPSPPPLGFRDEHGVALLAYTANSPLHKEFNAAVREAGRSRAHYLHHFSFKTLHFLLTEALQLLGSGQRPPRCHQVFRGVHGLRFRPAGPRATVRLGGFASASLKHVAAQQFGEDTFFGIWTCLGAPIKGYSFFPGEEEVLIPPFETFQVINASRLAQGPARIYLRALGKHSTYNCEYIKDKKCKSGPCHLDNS

[2] = target: T2, purified recombinant human ART1 (human, UniProt P52961 23-295); assay: SPR; antibody captured on anti-mouse Fc surface, ART1 as analyte, 1:1 kinetic fit
T2 construct: Produced in HEK293 cells and purified; also called huART1; human ADP-ribosyltransferase 1
T2 sequence: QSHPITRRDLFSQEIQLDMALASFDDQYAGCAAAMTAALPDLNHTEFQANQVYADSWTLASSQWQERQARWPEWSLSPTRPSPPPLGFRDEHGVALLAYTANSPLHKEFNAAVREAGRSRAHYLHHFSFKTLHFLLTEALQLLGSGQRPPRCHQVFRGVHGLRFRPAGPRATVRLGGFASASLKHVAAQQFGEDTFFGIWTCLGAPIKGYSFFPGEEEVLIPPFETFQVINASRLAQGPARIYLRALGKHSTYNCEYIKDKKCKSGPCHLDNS
Description: (§1) FIGS. 12A-12D. […] Sensorgrams are double-reference subtracted using a control surface and blank injections. Affinity constants were determined by kinetic fit using a 1:1 binding model.

[3] = target: T3, purified recombinant mouse ART1 (mouse, UniProt Q60935 23-290); assay: as above
T3 construct: Produced in HEK293 cells and purified; also called moART1; murine ART1
T3 sequence: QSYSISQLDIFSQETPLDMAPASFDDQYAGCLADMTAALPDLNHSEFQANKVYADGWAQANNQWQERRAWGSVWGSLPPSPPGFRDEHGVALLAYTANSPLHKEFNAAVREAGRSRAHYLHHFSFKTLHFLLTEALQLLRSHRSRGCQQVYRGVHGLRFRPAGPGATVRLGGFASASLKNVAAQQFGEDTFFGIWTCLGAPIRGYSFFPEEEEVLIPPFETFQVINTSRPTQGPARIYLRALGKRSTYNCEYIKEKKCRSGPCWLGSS
Description: as §1

[4] = target: T2, purified recombinant human ART1; assay: sensorgrams R [RU] against time [s] with fitted lines, panel '14G01 Binding huART1', huART1 at 100.0, 25.00, 12.50, 6.250, 3.125, 1.563 nM; format not told for this figure (FIG. 12 legend: SPR, antibody captured on anti-mouse Fc, 1:1 fit)
[5] = target: T3, purified recombinant mouse ART1; assay: sensorgrams R [RU] against time [s] with fitted lines, panel '14G01 Binding moART1', moART1 at 200.0, 100.0, 25.00, 12.50, 3.125, 1.563 nM; format not told for this figure (FIG. 12 legend: SPR, antibody captured on anti-mouse Fc, 1:1 fit)
[6] = target: T1, human ART1 expressed on HEK293 cells; assay: panel 'ART1 Ab binding' on HEK293 cells transfected with ART1; y axis GMFI, Ratio to 2nd Only, x axis Log[Ab], nM (the legend calls it a NAD-Glo assay); the curve rises from about 3.3 to a plateau of about 13

Row | Binder | IC50 Cell Surface ADP-Ribosylation [1] [nM] | Kd [2] [nM] | Kd [3] [nM] | Kd [4] [nM] | Kd [5] [nM] | EC50 [6] [nM]
1 | 14G01 monoclonal antibody (antibody, V domains shown, Purified from hybridoma supernatant; VH and VK are human; The antibody was captured on an anti-mouse Fc surface in SPR) VH: QVQLQESGPGLVKPSETLSLTCTVSGGSISSYYWSWIRQPAGKGLEWIGRISTSGFTNYNPSLKSRVTMSVDSSKNQFSLKLSSLTAADTAVYYCARDGWGRVFDIWGLGTMVTVSS VL: not shown | 28 | 4 | 6 | 3.8 | 6.2 | –
2 | 22C12 monoclonal antibody (parental, mouse light chain) (antibody, V domains shown, Purified from hybridoma supernatant (AlivaMab Mouse); VH is human and VK is mouse; The antibody was captured on an anti-mouse Fc surface in SPR; also called 22C12 (mLC); mLC22C12) VH: QVTLKESGPVLVKPTETLTLTCTVSGFSLSNARMGVSWIRQPPGKALEWLAHIFSNDEKSYSTSLKSRLTISKDTSKSQVVLTMTNMDPVDTATYYCARIYGGDSWGYFDNWGQGTLVTVSS VL: QIVLTQSPAIMSASLGEKVTMTCSASSSVSYMHWYQQKSGTSPKRWIYDTSKLASGVPARFSGSGSGTSYSLTISSMEAGDAATYYCQQWSSNPPTFGAGTKLELK | 14 | 0.161 | 0.439 | – | – | 0.75
